This is an account of results in US20120316071A1.

Assay [1] addresses rHuman Notch-1/Fc Chimera, CF (R&D Systems Cat#3647-TK) (human) (UniProt P46531). In words: ECL multispot (MSD) assay, antigen spotted on plate, 20 nM Fab.
The target in assay [2] is rHuman P-Cadherin/Fc Chimera, CF (R&D Systems Cat#861-PC) (human) (UniProt P22223). In words: Multispot ECL (MSD), antigen spotted on plate, Fab […]; blank spot 276.
The target is the same in assay [3]. In words: Multispot ECL (MSD), antigen spotted on plate, Fab […]; blank spot 357.
Assay [4] shares this target. The assay can be described thus: Multispot ECL (MSD), antigen spotted on plate, Fab 580 nM; blank spot 679.
Assay [5] shares this target. The assay can be described thus: Multispot ECL (MSD), antigen spotted on plate, Fab 36.3 nM; blank spot 314.
The target in assay [6] is rHuman ErbB2/Fc Chimera, CF (R&D Systems Cat#1129-ER) (human) (UniProt P04626). In words: ECL multispot (MSD) binding assay, antigen spotted on plate, Fab 0.04 uM.
Assay [7] concerns the target Recombinant Human DLL4 (R&D Systems Cat#1506-D4/CF) (human) (UniProt Q9NR61). The assay can be described thus: ELISA, DLL4 coated on plate, Fab at […]. On the technique in general: An ELISA detects its analyte on a solid surface through an enzyme-linked reagent.
The target is the same in assay [8]. The assay can be described thus: ELISA, DLL4 coated on plate, Fab at 20 nM.
Assay [9] has the same target. The assay can be described thus: ELISA, DLL4 coated on plate, Fab at 0.74 nM.
The target is the same in assay [10]. The assay can be described thus: ELISA, DLL4 coated on plate, Fab at 2.22 nM.

Numbering of substitutions follows the chain as printed. Names and notes keep the numbering of the source.

B1: Fab VH3-23_IGHD2-21*01>3_IGHJ6*01 H100E/S108P/Y113G T58A & V2-13_IGLJ2*01 (Fab, V domains shown)
VH: EVQLLESGGGLVQPGGSLRLSCAASGFTFSSYAMSWVRQAPGKGLEWVSSISGSGGSAYYADSVKGRFTISRDNSKNTLYLQMNSLRAEDTAVYYCAKEEIVVVIAIPYYYYGYGMDVWGQGTLVTVSS
VL: SSELTQDPAVSVALGQTVRITCQGDSLRSYYASWYQQKPGQAPVLVIYGKNNRPSGIPDRFSGSSSGNTASLTITGAQAEDEADYYCNSRDSSGNHLVVFGGGTKLTVL
With B1, in [1], the ECL signal/blank ratio (read-out not given) stood at 3.1.

B2: Fab VH3-23_IGHD2-21*01>3_IGHJ6*01 H100E/S108P/Y113G D62A & V2-13_IGLJ2*01 (Fab, V domains shown)
VH: B1 VH with A58T, D62A
VL: B1 VL
With B2, the ECL signal/blank ratio (read-out not given) in [1] came to 3.5.

B3: Fab VH4-34_IGHD7-27*01_IGHJ4*01 & V1-4_IGLJ4*01 (Fab, V domains shown)
VH: QVQLQQWGAGLLKPSETLSLTCAVYGGSFSGYYWSWIRQPPGKGLEWIGEINHSGSTNYNPSLKSRVTISVDTSKNQFSLKLSSVTAADTAVYYCARANWGDYFDYWGQGTLVTVSS
VL: QSALTQPASVSGSPGQSITISCTGTSSDVGGYNYVSWYQQHPGKAPKLMIYEVSNRPSGVSNRFSGSKSGNTASLTISGLQAEDEADYYCSSYTSSSTLFVFGGGTQLIIL
In turn, B3 returned an ECL signal at 9.1 nM Fab in [2] of 589. In [3], this molecule yielded an ECL signal at 145 nM Fab of 850. In [4], this molecule showed an ECL signal at 580 nM Fab of 2240. The molecule also yielded an ECL signal at 36.3 nM Fab in assay [5] of 684.

B4: Fab VH5-51_IGHD5-18*01>3_IGHJ4*01 G100K/G104T (H:KT) & V3-4_IGLJ1*01 L92A (Fab, V domains shown)
VH: EVQLVQSGAEVKKPGESLKISCKGSGYSFTSYWIGWVRQMPGKGLEWMGIIYPGDSDTRYSPSFQGQVTISADKSISTAYLQWSSLKASDTAMYYCARRKYSYTYDYFDYWGQGTLVTVSS
VL: QTVVTQEPSFSVSPGGTVTLTCGLSSGSVSTSYYPSWYQQTPGQAPRTLIYSTNTRSSGVPDRFSGSILGNKAALTITGAQADDESDYYCVAYMGSGISYVFGTGTKVTVL
In assay [6], B4 returned an ECL signal of 1370.

B5: Fab VH5-51_IGHD5-18*01>3_IGHJ4*01 G100K/G104T G24L/S28R/G35V (H:KT LRV) & V3-4_IGLJ1*01 M94R/S96M (L:RM) (Fab, V domains shown)
VH: B4 VH with G24L, S28R, G35V
VL: B4 VL with A92L, M94R, S96M
B5: the ELISA signal in assay [7] worked out at 0; in [8], 0.003; in assay [9], 0; in assay [10] it was 0.

B6: Fab VH5-51_IGHD5-18*01>3_IGHJ4*01 G100K/G104T G24A/S28R/G35V (H:KT ARV) & V3-4_IGLJ1*01 M94R/S96M (L:RM) (Fab, V domains shown)
VH: B4 VH with G24A, S28R, G35V
VL: B4 VL with A92L, M94R, S96M
Regarding B6, the ELISA signal in assay [7] came to 0.034; in [8] it was 0.006; in assay [9], 0; in assay [10] it was 0.
